Data from paper PMC5370183, “Kinetics of the LOV domain of ZEITLUPE determine its circadian function in Arabidopsis” (eLife, 2017).
Numbering of substitutions follows the chain as printed. Names and notes keep the numbering of the source.

Legend:
[1] = molecular target: the molecule itself; experiment: SEC; Superdex 200 10/300 analytical column in stabilizing buffer (50 mM Tris pH 7 or 50 mM Hepes pH 8 with 100 mM and 10% glycerol); apparent MW against standards; G80R in dark and light state
[2] = molecular target: the molecule itself; experiment: SEC; R95A at 130 µM and 13 µM, dark and light state; elution not concentration dependent; dimer to monomers

B1: FKF1 28–174 (FLAVIN-BINDING, KELCH REPEAT, F-BOX 1 LOV domain) (domain or fragment, Arabidopsis thaliana, UniProt Q9C9W9 28-174, looked up)
chain: NDGIEEQVEDEKLPLEVGMFYYPMTPPSFIVSDALEPDFPLIYVNRVFEVFTGYRADEVLGRNCRFLQYRDPRAQRRHPLVDPVVVSEIRRCLEEGIEFQGELLNFRKDGTPLVNRLRLAPIRDDDGTITHVIGIQVFSETTIDLDR
notes: source: purified protein
[1]
  stoichiometry N: 2

B2: WT ZTL 29–165 (ZEITLUPE LOV domain construct ZTL-S) (domain or fragment, Arabidopsis thaliana, UniProt Q94BT6 29-165, looked up)
chain: GGPIPYPVGNLLHTAPCGFVVTDAVEPDQPIIYVNTVFEMVTGYRAEEVLGGNCRFLQCRGPFAKRRHPLVDSMVVSEIRKCIDEGIEFQGELLNFRKDGSPLMNRLRLTPIYGDDDTITHIIGIQFFIETDIDLGP
notes: also called ZTL LOV domain
[1]
  stoichiometry N: 2

B3: ZTL 29–165 V48I:G80R (domain or fragment, Arabidopsis thaliana, UniProt Q94BT6 29-165, looked up)
chain: B2 chain with V20I, G52R
notes: Crystallised in the dark state (5SVV) and in the light state with the C4a adduct between C82 and FMN (5SVW)
[1]
  stoichiometry N: 2

B4: ZTL 29–165 G80R (domain or fragment, Arabidopsis thaliana, UniProt Q94BT6 29-165, looked up)
chain: B2 chain with G52R
notes: Tested by SEC in dark and light state
[1]
  stoichiometry N: 2

B5: ZTL 29–165 G46S:G80R (domain or fragment, Arabidopsis thaliana, UniProt Q94BT6 29-165, looked up)
chain: B2 chain with G18S, G52R
[1]
  stoichiometry N: 2

B6: ZTL 29–165 R95A (domain or fragment, Arabidopsis thaliana, UniProt Q94BT6 29-165, looked up)
chain: B2 chain with R67A
[2]
  Kd: < 0.2 µM
  stoichiometry N: 2

B7: ZTL 16–165 (domain or fragment, Arabidopsis thaliana, UniProt Q94BT6 16-165, looked up)
chain: SLADDEEGGLFPGGGPIPYPVGNLLHTAPCGFVVTDAVEPDQPIIYVNTVFEMVTGYRAEEVLGGNCRFLQCRGPFAKRRHPLVDSMVVSEIRKCIDEGIEFQGELLNFRKDGSPLMNRLRLTPIYGDDDTITHIIGIQFFIETDIDLGP
notes: source: purified protein
[1]
  stoichiometry N: 2
